Substitutions are numbered along the chain they refer to.
B1: murine anti-SdrF monoclonal antibody 108-1 (antibody, V domains shown)
VH: EVQLQQSGAELVKPGASVKLSCTASGFNIKDTYIHWVKQRPEQGLEWIGRIDPANGNTHYDSQFQGKATITADTSSNTAYLQLSSLTSDDTAVYYCTRRVGYAMDYWGQGTSVTVSS
VL: DIVMTQSHKFMSTSVGDRVIITCKASQDVNTALAWYQQKPGQSPKLLIYSASYRYTGVPDRFTGSGSGTDFTFTISSVQAEDLAVYYCQQHYSTPPYTFGGGTKLEIK
notes: Mouse hybridoma antibody (Balb/C, fusion F108)
B2: murine anti-SdrF monoclonal antibody 108-36 (antibody, V domains shown)
VH: QVTLRESGPGILQPSQTLSLTCSFSGFSLNTSGMGVTWIRQPSGKGLEWLANIYWDDDKRYNPSLKSRLTISKANSRNQVFLKITSVDTADTATYYCTRPNYLGTVYWYFDVWGAGTMVTVSS
VL: QIVLTQSPAIMSASPGEKVTMTCSASSSVSYMYWYQQKPGSSPRVLIYDTSNLASGVPVRFSGSGSGTSYSLTISRMEAEDAATYYCQQWNGYPPTFGAGTKLEVK
notes: Mouse hybridoma antibody (fusion F108)
B3: murine anti-SdrF monoclonal antibody 110-15 (antibody, V domains shown)
VH: EVQLVESGGGLVKPGGSLKLSCAASGFAFSSYDMSWVRQTPEKRLEWVAYISSGGGITYYPDTVKGRFTISRDNAKNTLYVQMSSLKSEDTAIYYCTRHDRDSWFAYWGQGTLVTVSA
VL: B2 VL with K18E, V19G, S30R, Q36R, V45L, N91S, G92S, A99G, V105M
notes: Mouse hybridoma antibody (fusion F110); also called Murine 110-15; 110-15VL-Mouse/110-15VH-Mouse
B4: Humanized 110-15 (antibody, V domains shown)
VH: B3 VH with K13Q, A75S, K87R, S88A, I93V, A118S
VL: EIVLTQSPGTMSASPGERGTMSCSASSSVRYMYWYRQKPGQSPRLLIYDTSNLASGVPARFSGSGSGTSYSLTISRMEAEDAATYYCQQWSSYPPTFGGGTKLEMK
notes: Humanized (veneered) variable regions with 'the appropriate light or heavy chain constant region', expressed in NSO cells; also called 110-15VL-Hu/110-15VH-Hu
B5: Humanized 108-1 (antibody, V domains shown)
VH: B1 VH with E1Q, Q5V, L11V, T23K, E42G, S76T, N77S, T87R, D89E, S112T
VL: B1 VL with H8Q, I20T, D60S, T63S
notes: Humanized (veneered) variable regions spliced into plasmids with 'the appropriate light or heavy chain constant region', expressed in NSO cells
B6: Humanized 108-36 (antibody, V domains shown)
VH: B2 VH with Q13K, S23T, T89P, A90V, A115Q
VL: B2 VL with Q1E, I10T, K18R, T22S, S41Q, V59S, R76S, A79P, A99G
modifications: N-linked carbohydrate chain on the asparagine at position 30 of the variable heavy chain
notes: Humanized (veneered) variable regions with 'the appropriate light or heavy chain constant region', expressed in NSO cells; also called Hu108-36

biological target: T1, SdrF N2N3 (361-679), His-tagged recombinant fragment (Staphylococcus epidermidis (K28 genomic …, UniProt Q9KI14 361-678)); experiment: ELISA, plate coated with SdrF N2N3, hybridoma supernatant
T1 construct: expressed in E. coli
T1 sequence: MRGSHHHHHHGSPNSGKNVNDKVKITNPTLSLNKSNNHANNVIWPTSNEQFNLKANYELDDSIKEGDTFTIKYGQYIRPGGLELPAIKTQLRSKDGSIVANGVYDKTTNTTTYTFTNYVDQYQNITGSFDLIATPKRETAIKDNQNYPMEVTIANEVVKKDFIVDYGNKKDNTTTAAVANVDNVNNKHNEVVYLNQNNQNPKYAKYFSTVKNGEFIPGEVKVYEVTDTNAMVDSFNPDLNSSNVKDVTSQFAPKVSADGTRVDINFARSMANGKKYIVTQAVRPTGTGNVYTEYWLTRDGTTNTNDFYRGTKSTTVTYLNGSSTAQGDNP

**Q.** How did the “ELISA OD405” value turn out when B1 was run?
**A.** Its value is 0.99 OD405.

**Q.** For B2, which “ELISA OD405” value is on record?
**A.** Its value is 0.72 OD405.

**Q.** Which “ELISA OD405” value does the source give for B3 here?
**A.** Its value is 0.7 OD405.

biological target: T2, SdrF N1N2N3 (52-679), His-tagged recombinant A domain of S. epidermidis SdrF (Staphylococcus epidermidis (K28 genomic …, UniProt Q9KI14 53-678)); experiment: Biacore 3000, mAb captured on anti-F(ab)2 chip, SdrF (N1N2N3) in flow
T2 construct: expressed in E. coli; also called SdrF A domain
T2 sequence: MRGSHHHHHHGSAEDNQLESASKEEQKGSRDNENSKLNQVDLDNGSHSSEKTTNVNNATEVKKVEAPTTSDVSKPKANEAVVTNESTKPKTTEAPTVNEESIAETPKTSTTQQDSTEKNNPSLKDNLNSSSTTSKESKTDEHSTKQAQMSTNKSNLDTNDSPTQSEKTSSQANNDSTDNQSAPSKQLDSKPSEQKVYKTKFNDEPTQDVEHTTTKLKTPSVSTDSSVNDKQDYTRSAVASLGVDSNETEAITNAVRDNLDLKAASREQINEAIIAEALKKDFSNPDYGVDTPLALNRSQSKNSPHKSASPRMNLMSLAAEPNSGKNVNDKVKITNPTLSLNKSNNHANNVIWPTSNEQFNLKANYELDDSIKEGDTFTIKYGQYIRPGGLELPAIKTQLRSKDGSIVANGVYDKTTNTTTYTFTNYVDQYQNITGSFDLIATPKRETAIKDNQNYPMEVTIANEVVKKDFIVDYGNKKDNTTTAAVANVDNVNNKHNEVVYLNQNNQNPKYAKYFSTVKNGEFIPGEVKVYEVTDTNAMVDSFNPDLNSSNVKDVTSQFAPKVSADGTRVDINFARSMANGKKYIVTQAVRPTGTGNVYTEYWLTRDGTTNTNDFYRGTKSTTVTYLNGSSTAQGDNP

**Q.** Which Ka does the source give for B1 here?
**A.** Its Ka is 6.2e+08 M⁻¹.

**Q.** What about the Kd of the same binder?
**A.** The Kd was 1.61 nM.

**Q.** And the koff?
**A.** Its koff is 0.000134 s⁻¹.

**Q.** What about the kon of the same binder?
**A.** Its kon is 82900 M⁻¹ s⁻¹.

**Q.** B2 was tested. Which Ka did it give?
**A.** The Ka was 4.52e+09 M⁻¹.

**Q.** What about the Kd of the same binder?
**A.** The Kd was 0.221 nM.

**Q.** What about the koff of the same binder?
**A.** The koff was 5.6e-05 s⁻¹.

**Q.** And the kon?
**A.** The kon was 232000 M⁻¹ s⁻¹.

**Q.** What does the source list for B3?
**A.** Ka: 1.29e+09 M⁻¹; Kd: 0.774 nM; koff: 0.000164 s⁻¹; kon: 212000 M⁻¹ s⁻¹

biological target: T2, SdrF N1N2N3 (52-679), His-tagged …; experiment: Biacore 3000, ligand capture of mAb, SdrF (N1N2N3) in flow

**Q.** For B4, which Ka is on record?
**A.** Its Ka is 1.4e+09 M⁻¹.

**Q.** What about the Kd of the same binder?
**A.** Its Kd is 0.74 nM.

**Q.** And the koff?
**A.** Its koff is 0.00013 s⁻¹.

**Q.** And the kon?
**A.** Its kon is 170000 M⁻¹ s⁻¹.

**Q.** Which results are given for B1?
**A.** Ka: 6.2e+08 M⁻¹; Kd: 1.6 nM; koff: 0.00013 s⁻¹; kon: 83000 M⁻¹ s⁻¹

**Q.** What does the source list for B5?
**A.** Ka: 5.6e+08 M⁻¹; Kd: 1.8 nM; koff: 0.00017 s⁻¹; kon: 94000 M⁻¹ s⁻¹

**Q.** How did the Ka turn out when B2 was run?
**A.** The Ka was 4.5e+09 M⁻¹.

**Q.** And the Kd?
**A.** Its Kd is 0.22 nM.

**Q.** What about the koff of the same binder?
**A.** Its koff is 5.6e-05 s⁻¹.

**Q.** And the kon?
**A.** The kon was 230000 M⁻¹ s⁻¹.

**Q.** B3 was tested. Which Ka did it give?
**A.** Its Ka is 1.3e+08 M⁻¹.

**Q.** And the Kd?
**A.** Its Kd is 0.77 nM.

**Q.** And the koff?
**A.** The koff was 0.00016 s⁻¹.

**Q.** What about the kon of the same binder?
**A.** The kon was 210000 M⁻¹ s⁻¹.

**Q.** Which results are given for B6?
**A.** Ka: 2.2e+09 M⁻¹; Kd: 0.46 nM; koff: 6.3e-05 s⁻¹; kon: 140000 M⁻¹ s⁻¹

biological target: T2, SdrF N1N2N3 (52-679), His-tagged …; experiment: ELISA, plate coated with SdrF N1N2N3, hybridoma supernatant

**Q.** For B1, which “ELISA OD405” value is on record?
**A.** Its value is 0.89 OD405.

**Q.** For B2, which “ELISA OD405” value is on record?
**A.** The value was 0.77 OD405.

**Q.** B3 was tested. Which “ELISA OD405” value did it give?
**A.** The value was 0.63 OD405.

biological target: T2, SdrF N1N2N3 (52-679), His-tagged …; experiment: Biacore, mAb captured via RAM-Fc, SdrF injected

**Q.** For B1, which “Biacore SdrF bound” value is on record?
**A.** The value was 146.

**Q.** For B2, which “Biacore SdrF bound” value is on record?
**A.** The value was 146.

**Q.** B3 was tested. Which “Biacore SdrF bound” value did it give?
**A.** Its value is 153.

biological target: T3, SdrF N3 (517-679), His-tagged recombinant fragment (Staphylococcus epidermidis (K28 genomic …, UniProt Q9KI14 517-678)); experiment: ELISA, plate coated with SdrF N3
T3 construct: expressed in E. coli
T3 sequence: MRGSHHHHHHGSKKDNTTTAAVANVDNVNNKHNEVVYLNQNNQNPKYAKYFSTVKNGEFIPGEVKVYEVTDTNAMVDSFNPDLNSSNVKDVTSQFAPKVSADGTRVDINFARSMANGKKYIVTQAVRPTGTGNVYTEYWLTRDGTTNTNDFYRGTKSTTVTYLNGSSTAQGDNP

**Q.** Does B2 bind?
**A.** Result: no binding

**Q.** Does B3 bind?
**A.** Result: no binding

biological target: T4, SdrF N2 (361-517), His-tagged recombinant fragment (Staphylococcus epidermidis (K28 genomic …, UniProt Q8CMP4 361-517)); experiment: ELISA, plate coated with SdrF N2
T4 construct: expressed in E. coli
T4 sequence: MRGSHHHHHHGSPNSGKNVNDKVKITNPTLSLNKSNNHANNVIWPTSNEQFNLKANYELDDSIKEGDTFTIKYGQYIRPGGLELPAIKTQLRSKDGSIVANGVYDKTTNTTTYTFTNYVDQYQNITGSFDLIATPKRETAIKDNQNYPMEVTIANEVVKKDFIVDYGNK

**Q.** Does B3 bind?
**A.** Result: no binding

Reference: patent US20100183623A1 (INHIBITEX, published 2010)
